Assay [1] has as its target T1, FcγRIIIa (158V) (UniProt P08637 17-208).
T1 construct: 158 is usually counted on the mature protein (176 on the precursor); also called Fc gamma receptor IIIa
Kind of assay: SPR (Biacore 8K), antibody captured on Protein A chip, Fc receptor as analyte. As to the method: (§1) A total of 5 Fc receptors, including FcγRI (Abcam), FcγRIIa, FcγRIIb, FcγRIIIa (158V), and FcγRIIIb (Sino Biological), were analyzed. […] SPR kinetic experiments were performed on Biacore 8K systems (GE Healthcare) with HBS-EP+ as running buffer. […] Capture level for each ligand was maintained between 50-100RU. […] After each binding cycle, the sensor chip was regenerated with glycine solution, pH 1.5. The resulting sensorgrams were fitted with a one-to-one binding model to extract kinetic constants using Biacore 8K Evaluation Software.
A general note: Surface plasmon resonance follows binding to a sensor surface in real time, without labels.

The target in assay [2] is T2, FcγRIIIb (UniProt O75015 17-200, limits assumed).
T2 construct: also called Fc gamma receptor IIIb
The description is as above. On the procedure:
as §1

Assay [3] has as its target T3, recombinant human 5T4 protein (human, UniProt Q13641 32-355).
T3 construct: The ELISA protein was bought (Sino biologics and Biorbyt); also called recombinant 5T4 protein; trophoblast glycoprotein (TPBG)
T3 sequence: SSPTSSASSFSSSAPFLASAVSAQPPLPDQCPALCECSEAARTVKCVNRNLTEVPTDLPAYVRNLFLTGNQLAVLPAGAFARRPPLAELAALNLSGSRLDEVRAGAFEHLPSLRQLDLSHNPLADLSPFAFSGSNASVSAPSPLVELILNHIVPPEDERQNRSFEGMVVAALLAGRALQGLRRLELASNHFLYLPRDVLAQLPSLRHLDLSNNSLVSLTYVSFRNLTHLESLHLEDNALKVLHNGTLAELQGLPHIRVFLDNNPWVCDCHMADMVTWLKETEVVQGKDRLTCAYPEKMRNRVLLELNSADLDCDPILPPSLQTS
Kind of assay: SPR (Biacore 8K), antibody captured on Protein A chip, 5T4 as analyte 0.625-10 nM, 1:1 model. On the procedure:
The binding affinity of anti-5T4 bispecific antibody-drug conjugate monospecific and bispecific antibodies to 5T4 was measured by Biacore kinetic experiments using a Protein A sensor chip on Biacore 8K (Cytiva) with HBS-EP+ as running buffer. […] After each binding cycle, the sensor chip was regenerated with glycine solution, pH 1.5. Signals from reference surface and an ensemble of buffer blank injections were subtracted from binding signals to correct for nonspecific binding and injection artifacts. The corrected experimental signals were globally fitted to a 1:1 binding model to extract kinetic constants, including association rate constant (ka), dissociation rate constant (kd), and equilibrium dissociation constant (KD), using the Biacore 8K Evaluation Software.

A further assay has as its target T4, FcγRI (Abcam) (UniProt P12314 16-288, limits assumed).
T4 construct: also called Fc gamma receptor I
Kind of assay: SPR (Biacore 8K), antibody captured on Protein A chip, Fc receptor as analyte, 1:1 model. As to the method:
as §1

Assay [4] has as its target T5, FcγRIIa (UniProt P12318 34-218, limits assumed).
T5 construct: also called Fc gamma receptor IIa
T5 sequence (looked up): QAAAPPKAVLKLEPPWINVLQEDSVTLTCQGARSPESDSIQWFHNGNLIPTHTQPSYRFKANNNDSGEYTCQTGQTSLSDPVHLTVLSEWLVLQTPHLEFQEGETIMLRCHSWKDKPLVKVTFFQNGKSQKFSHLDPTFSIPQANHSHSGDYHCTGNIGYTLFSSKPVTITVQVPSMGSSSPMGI
The assay is described as above. As to the method: as §1

The target in assay [5] is T6, FcγRIIb (UniProt P31994 43-217, limits assumed).
T6 construct: also called Fc gamma receptor IIb
T6 sequence (looked up): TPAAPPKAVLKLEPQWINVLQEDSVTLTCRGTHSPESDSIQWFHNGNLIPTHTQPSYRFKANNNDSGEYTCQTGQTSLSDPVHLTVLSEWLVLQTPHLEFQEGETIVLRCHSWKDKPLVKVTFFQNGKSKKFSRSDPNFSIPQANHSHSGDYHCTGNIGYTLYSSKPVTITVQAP
The assay is described as above. As to the method:
as §1

Assay [6] concerns the target T7, FcγRIIIb (Homo sapiens, UniProt O75015).
T7 construct: purchased Sino Biological
Kind of assay: FcγR binding activity, Biacore SPR. To be noted: antibody captured on protein A chip, receptor 0.41 nM to 100 nM. On the procedure: (§2) Site mutations (L234F and S239C) in the Fc region of anti-5T4 bispecific antibody-drug conjugates were designed to mitigate potential side effects which could be caused by the antibody effector function. To confirm the mutations had the intended effect of reducing Fc receptor binding activities, the affinities between an anti-5T4 bispecific antibody with Fc mutations and an array of Fc receptors were evaluated by Biacore assay. A total of 5 Fc receptors, including FcγRI (Abcam), FcγRIIa, FcγRIIb, FcγRIIIa (158V), and FcγRIIIb (Sino Biological), were analyzed. One parental anti-5T4 Antibody (Ab1) without Fc mutations, was used as a positive control for FcR binding. SPR kinetic experiments were performed on Biacore 8K systems (GE Healthcare) with HBS-EP+ as running buffer. Antibodies were captured in the active flow cell of a protein A sensor chip (Cytiva). Capture level for each ligand was maintained between 50-100RU. For kinetic analysis, each receptor was serially diluted to 6 different concentrations, ranging from 0.41 nM to 100 nM, and the serial dilutions were injected sequentially over both reference and active flow cells in each single channel. After each binding cycle, the sensor chip was regenerated with glycine solution, pH 1.5. The resulting sensorgrams were fitted with a one-to-one binding model to extract kinetic constants using Biacore 8K Evaluation Software.
(§3) Site mutations (L234F, S239C and N434A) in the Fc region of the Bs3-HL biparatopic antibody are designed to mitigate potential side effects caused by the antibody effector function.

The target of assay [7] is T8, FcγRIIa (Homo sapiens, UniProt P12318).
T8 construct: purchased Sino Biological
T8 sequence (P12318 34-317): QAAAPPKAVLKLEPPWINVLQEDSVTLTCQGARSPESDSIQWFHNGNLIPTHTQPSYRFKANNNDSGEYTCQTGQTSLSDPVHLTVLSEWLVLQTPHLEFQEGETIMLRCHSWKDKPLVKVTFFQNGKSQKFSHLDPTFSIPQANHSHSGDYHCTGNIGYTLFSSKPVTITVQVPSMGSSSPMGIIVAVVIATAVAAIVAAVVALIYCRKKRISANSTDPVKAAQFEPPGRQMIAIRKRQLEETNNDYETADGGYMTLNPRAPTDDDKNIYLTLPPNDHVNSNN
Kind of assay: FcγR binding activity, Biacore SPR. The settings on record: antibody captured on protein A chip, receptor 0.41 nM to 100 nM. As to the method: as §2, §3

Assay [8] deals with T9, FcγRIIb (Homo sapiens, UniProt P31994).
T9 construct: purchased Sino Biological
T9 sequence (P31994 43-310): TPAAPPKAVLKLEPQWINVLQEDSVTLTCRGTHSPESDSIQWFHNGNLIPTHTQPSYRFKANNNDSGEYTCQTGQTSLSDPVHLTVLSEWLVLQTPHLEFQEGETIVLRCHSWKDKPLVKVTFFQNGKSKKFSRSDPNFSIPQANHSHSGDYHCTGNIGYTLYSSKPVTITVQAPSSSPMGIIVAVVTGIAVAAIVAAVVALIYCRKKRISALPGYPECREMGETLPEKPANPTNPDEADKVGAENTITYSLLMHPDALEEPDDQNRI
Kind of assay: FcγR binding activity, Biacore SPR. The settings on record: antibody captured on protein A chip, receptor 0.41 nM to 100 nM. On the procedure: as §2, §3

A further assay has as its target T10, FcγRI (Homo sapiens, UniProt P12314).
T10 construct: purchased Abcam
Kind of assay: FcγR binding activity, Biacore SPR. The settings on record: antibody captured on protein A chip, receptor 0.41 nM to 100 nM. As to the method:
(§4) A total of 5 Fc receptors, including FcγRI (Abcam), FcγRIIa, FcγRIIb, FcγRIIIa (158V), and FcγRIIIb (Sino Biological), were analyzed. One parental anti-5T4 Antibody (Ab1) without Fc mutations, was used as a positive control for FcR binding. SPR kinetic experiments were performed on Biacore 8K systems (GE Healthcare) with HBS-EP+ as running buffer. […] Capture level for each ligand was maintained between 50-100RU. […] After each binding cycle, the sensor chip was regenerated with glycine solution, pH 1.5. The resulting sensorgrams were fitted with a one-to-one binding model to extract kinetic constants using Biacore 8K Evaluation Software.

Assay [9] has as its target T11, FcγRIIIa (158V) (Homo sapiens, UniProt P08637, F176V).
T11 construct: purchased Sino Biological
Kind of assay: FcγR binding activity, Biacore SPR. The settings on record: antibody captured on protein A chip, receptor 0.41 nM to 100 nM. On the procedure:
as §4

T11 sequence (P08637 17-208 F176V limits assumed): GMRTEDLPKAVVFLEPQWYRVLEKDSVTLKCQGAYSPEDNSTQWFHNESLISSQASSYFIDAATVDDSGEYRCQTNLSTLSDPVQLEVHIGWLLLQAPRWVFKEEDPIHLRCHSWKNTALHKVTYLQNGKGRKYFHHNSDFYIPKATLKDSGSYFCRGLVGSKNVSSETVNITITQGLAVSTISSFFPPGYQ
T1 sequence (P08637 17-208 F176V): as the sequence (P08637 17-208 F176V limits assumed) above
T10 sequence (P12314 16-374): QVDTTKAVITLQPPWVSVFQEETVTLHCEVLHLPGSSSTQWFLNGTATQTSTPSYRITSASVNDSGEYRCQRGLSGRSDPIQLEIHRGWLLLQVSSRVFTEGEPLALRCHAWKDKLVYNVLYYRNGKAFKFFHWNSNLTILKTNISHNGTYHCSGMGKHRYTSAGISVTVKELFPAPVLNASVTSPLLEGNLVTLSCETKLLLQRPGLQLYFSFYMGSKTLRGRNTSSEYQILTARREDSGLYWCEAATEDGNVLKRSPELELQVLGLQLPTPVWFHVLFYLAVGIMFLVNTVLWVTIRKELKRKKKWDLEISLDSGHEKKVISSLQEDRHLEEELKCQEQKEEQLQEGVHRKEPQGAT
T4 sequence (P12314 16-288 limits assumed): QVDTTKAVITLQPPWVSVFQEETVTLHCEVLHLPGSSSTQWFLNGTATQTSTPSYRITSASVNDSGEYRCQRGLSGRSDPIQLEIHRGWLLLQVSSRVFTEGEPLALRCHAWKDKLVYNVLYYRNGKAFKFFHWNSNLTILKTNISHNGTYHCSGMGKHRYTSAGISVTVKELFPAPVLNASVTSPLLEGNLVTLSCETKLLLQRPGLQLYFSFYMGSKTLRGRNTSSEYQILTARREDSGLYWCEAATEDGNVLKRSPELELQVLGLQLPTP
T2 sequence (O75015 17-200 limits assumed): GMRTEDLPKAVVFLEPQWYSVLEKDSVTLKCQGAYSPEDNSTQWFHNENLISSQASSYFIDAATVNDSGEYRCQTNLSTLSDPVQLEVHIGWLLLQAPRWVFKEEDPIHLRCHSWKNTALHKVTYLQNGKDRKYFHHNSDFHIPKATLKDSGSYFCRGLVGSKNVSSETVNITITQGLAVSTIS
T7 sequence (O75015 17-200): as the sequence (O75015 17-200 limits assumed) above

B1: Bs3-HL-FCA biparatopic anti-5T4 antibody (Bs3 with the scFv in the VH-VL orientation and the L234F, S239C and N434A mutations) (bispecific antibody, human IgG1, kappa)
heavy: QVQLVQSGAEVKKPGASVKVSCKASGYSFTDYYMHWVRQAPGQGLEWMGRVSPNNGATNTNQKFKDRVTMTRDTSISTAYMELRSLRSEDTAVYYCARSTMITSYYFDYWGQGTLVTVSSASTKGPSVFPLAPSSKSTSGGTAALGCLVKDYFPEPVTVSWNSGALTSGVHTFPAVLQSSGLYSLSSVVTVPSSSLGTQTYICNVNHKPSNTKVDKRVEPKSCDKTHTCPPCPAPEFLGGPCVFLFPPKPKDTLMISRTPEVTCVVVDVSHEDPEVKFNWYVDGVEVHNAKTKPREEQYNSTYRVVSVLTVLHQDWLNGKEYKCKVSNKALPAPIEKTISKAKGQPREPQVYTLPPSREEMTKNQVSLTCLVKGFYPSDIAVEWESNGQPENNYKTTPPVLDSDGSFFLYSKLTVDKSRWQQGNVFSCSVMHEALHAHYTQKSLSLSPGKGGGGSGGGGSGGGGSEVQLLESGGGLVQPGGSLRLSCAASGFDFSRYWMTWVRQAPGKCLEWVSEINPDSRTINYTPSLKDRFTISRDNAKNTLYLQMNSLRAEDTAVYYCARPDHDYNPYYFNYWGQGTTVTVSSGGGGSGGGGSGGGGSGGGGSDIVLTQSPASLAVSLGQRATISCRPSQSVSTSSNSYIHWYQQKPGQPPKLLIKYASNLESGVPARFSGSGSGTDFTLTISPVEAEDTATYYCQQSWEIPLTFGCGTKLEIK
light: DIVMTQSPSFLSVSVGDRVTITCKASQSVSTDVAWYQQKPGQAPKLLIYFASDRYTGVPDRFSGSGSGTDFTFTISSLQAEDVAVYYCQQDYSSPPTFGGGTKLEIKRTVAAPSVFIFPPSDEQLKSGTASVVCLLNNFYPREAKVQWKVDNALQSGNSQESVTEQDSKDSTYSLSSTLTLSKADYEKHKVYACEVTHQGLSSPVTKSFNRGEC
notes: also called 5T4-Bs3- FCA; BsAb with the FCA mutations
B1: the binding result with FcγRIIIa (158V) [1] and with FcγRIIIb [2] was “no binding (tested: receptor 0.41 nM to 100 nM)” in each case. Further, the equilibrium dissociation constant (Kd) (commonly the equilibrium constant for the complex coming apart) came to 0.775 nM in assay [3], 39.6 nM with FcγRI (Abcam), 91.5 nM in the assay with FcγRIIa [4] and 116 nM in the assay with FcγRIIb [5].

B2: Parental Ab1 without Fc mutations: parental anti-5T4 Antibody (Ab1) without Fc mutations, used as a positive control for FcR binding (antibody, V domains shown)
VH: QVQLVQSGAEVKKPGASVKVSCKASGYSFTDYYMHWVRQAPGQGLEWMGRVSPNNGATNTNQKFKDRVTMTRDTSISTAYMELRSLRSEDTAVYYCARSTMITSYYFDYWGQGTLVTVSS
VL: DIVMTQSPSFLSVSVGDRVTITCKASQSVSTDVAWYQQKPGQAPKLLIYFASDRYTGVPDRFSGSGSGTDFTFTISSLQAEDVAVYYCQQDYSSPPTFGGGTKLEIK
In the case of B2, the “KD for binding to FcγRIIIb” value in the assay with FcγRIIIb [6] was “No binding”. Further, the dissociation constant Kd in the assay with FcγRIIa [7] was found to be 98.6 nM; in the assay with FcγRIIb [8], 111 nM; with FcγRI it was 3.73 nM; with FcγRIIIa (158V) [9], 50.5 nM.

The values are drawn from patent publication US20260124314A1, “ANTl-5T4 ANTIGEN BINDING DOMAINS, ANTIBODY-DRUG CONJUGATES AND METHODS OF USE THEREOF” (Salubris Biotherapeutics, Inc., priority 2023, published 2026).
